Measurements reported in US20220363763A1 (ABL BIO, published 2022).
Where a chain is given by its changes, count along the chain named.

Legend:
[1] = molecular target: T1, human PD-L1-his taq protein (human, UniProt Q9NZQ7 19-239, limits assumed); assay: SPR Biacore T200, antibody captured, PD-L1-his injected
T1 construct: also called recombinant PD-L1 protein; recombinant human PD-L1; not shown: his tag
Procedure: The binding of the humanized antibodies to recombinant PD-L1 protein (human PD-L1-his taq) was tested by BIACORE™ using a capture method. The HL1210-3 mouse mAb were captured using anti-mouse Fc antibody coated on a CM5 chip. A series dilution of human PD-L1-his taq protein was injected over captured antibody for 3 mins at a flow rate of […]. The antigen was allowed to dissociate for 900 s. All the experiments were carried out on a Biacore T200.

[2] = molecular target: T2, recombinant his-tag human LAG3-ECD protein (human, UniProt P18627 23-450); assay: SPR Biacore T200, capture method as Example 2.7
T2 construct: extracellular domain; not shown: his tag
T2 sequence (looked up): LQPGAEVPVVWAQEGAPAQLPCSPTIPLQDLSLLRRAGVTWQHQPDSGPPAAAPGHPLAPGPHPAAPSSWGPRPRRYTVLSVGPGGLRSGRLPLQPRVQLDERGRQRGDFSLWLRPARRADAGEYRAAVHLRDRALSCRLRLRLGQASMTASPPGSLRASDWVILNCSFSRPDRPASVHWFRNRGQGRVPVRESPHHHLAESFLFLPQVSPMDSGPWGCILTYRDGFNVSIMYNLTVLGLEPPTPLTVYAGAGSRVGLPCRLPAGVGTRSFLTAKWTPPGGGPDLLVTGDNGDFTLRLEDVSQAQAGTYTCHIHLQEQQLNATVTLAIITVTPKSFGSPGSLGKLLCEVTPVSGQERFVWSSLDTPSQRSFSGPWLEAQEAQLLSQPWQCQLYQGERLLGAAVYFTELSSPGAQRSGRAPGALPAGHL

[3] = molecular target: T3, human LAG3 (construct not stated) (human, UniProt P18627 23-450, limits assumed); assay: BLI Octet Red 96, affinity ranking
T3 construct: also called human LAG3 protein; antigen
T3 sequence (looked up): T2 sequence (looked up)

[4] = molecular target: T2, recombinant his-tag human LAG3-ECD …; assay: SPR Biacore T200, antibody captured by anti-human Fc, LAG3-ECD-his injected
Procedure: The binding of the S20, S24, S27, S31, S87, S119, S120, S128, S136, S161 and T99 antibodies to recombinant his-tag human LAG3-ECD protein was examined by Biacore T200 using a capture method. Anti-LAG3 antibodies were captured using anti-human Fc antibody. The anti-human Fc antibody was coated on chip. Serial concentrations of his-tag human LAG3-ECD protein (0-4 nM) were injected over capture antibodies at the flow rate of 30 μl/min. The dissociation phase was 900 s or 550 s. The Biacore results for the anti-LAG3 antibodies have shown that these anti-LAG3 antibodies are high affinity binder to human LAG3.

T1 sequence (Q9NZQ7 19-239 limits assumed): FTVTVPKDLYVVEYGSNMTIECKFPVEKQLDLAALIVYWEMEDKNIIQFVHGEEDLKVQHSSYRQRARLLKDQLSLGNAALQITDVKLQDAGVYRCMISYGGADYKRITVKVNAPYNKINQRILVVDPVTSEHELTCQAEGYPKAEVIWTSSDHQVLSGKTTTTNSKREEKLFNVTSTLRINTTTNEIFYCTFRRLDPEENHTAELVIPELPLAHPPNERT

B1: Hu1210-40 (antibody, V domains shown)
VH: EVQLVESGGGLVQPGGSLRLSCAASGFTFSSYDMSWVRQAPGKSLEWVATISEGGGYIYYSDSVKGRFTISRDNAKNSLYLQMNSLRDEDTAVYICAREFGKRYALDYWGQGTTVTVSS
VL: DIQMTQSPSSLSASVGDRVTITCKASQDVTPAVAWYQQKPGKAPKLLIYSTSSRYTGVPSRFSGSGSGTDFTFTISSLQPEDIATYYCQQHYTTPLTFGQGTKLEIK
notes: Hu1210 VH.4c x Vk.1; human gamma 1 / kappa constant domains
- Kd [1]: 1.49 nM
- koff [1]: 0.000131 s⁻¹
- kon [1]: 87700 M⁻¹ s⁻¹

B2: Hu1210-42 (antibody, V domains shown)
VH: B1 VH with E53D, G54V
VL: B1 VL
notes: Hu1210 VH.4e x Vk.1; human gamma 1 / kappa constant domains
- Kd [1]: 0.867 nM
- koff [1]: 7.53e-05 s⁻¹
- kon [1]: 86800 M⁻¹ s⁻¹

B3: Hu1210-28 (antibody, V domains shown)
VH: B1 VH with S44G, E53D, D88A, T114L
VL: DIQMTQSPSSLSASVGDRVTITCKASQDVTPAVAWYQQKPGKAPKLLIYSTSSRYTGVPDRFTGSGSGTDFTLTISSLQPEDFATYYCQQHYTTPLTFGQGTKLEIKR
notes: Hu1210 VH.5a x Vk.2a; human gamma 1 / kappa constant domains
- Kd [1]: 0.838 nM
- koff [1]: 0.000108 s⁻¹
- kon [1]: 129000 M⁻¹ s⁻¹

B4: 147H 3421 (antibody, V domains shown)
VH: EVQLVQSGAEVKKPGASVKVSCKASGYTFTNYWLGWIKQAPGQGLEWIGDIYPGGDYINYNEKFKGKATLTADTSISTAYMELSRLRSDDTAVYYCARPNLPKDHWGQGTTVTVSS
VL: DIVMTQSPLSLPVTPGEPASISCRSSKSLLHSNAITYLYWYLQKPGQSPQLLIYQVSNLASGVPDRFSGSGSGTDFTLKISRVEAEDVGVYYCAQNLELPWTFGGGTKVEIK
- Kd [2]: 8.1 nM
- koff [2]: 0.012 s⁻¹
- kon [2]: 1.4e+06 M⁻¹ s⁻¹

B5: 147H-11 (antibody, V domains shown)
VH: B4 VH with I37V, K38R, I48M, K103G, H105Y
VL: B4 VL with A34G
notes: Common light chain; human gamma 1 / kappa constant domains
- Kd [3]: 42.2 nM
- koff [3]: 0.00451 s⁻¹
- kon [3]: 107000 M⁻¹ s⁻¹

B6: 147H-1 (antibody, V domains shown)
VH: B4 VH with E1Q, I37V, K38R, I48M, K67R, A68V, L70M, A72R, K103G, H105Y
VL: B4 VL with A34G
- Kd [3]: 35.4 nM
- koff [3]: 0.00386 s⁻¹
- kon [3]: 109000 M⁻¹ s⁻¹

B7: 147H 3508 (antibody, V domains shown)
VH: B4 VH
VL: B4 VL with A94G
- Kd [2]: 1.4 nM
- koff [2]: 0.0042 s⁻¹
- kon [2]: 2.9e+06 M⁻¹ s⁻¹

B8: 147H 3793 (antibody, V domains shown)
VH: B4 VH with T28L, N59V, K103G, H105Y
VL: B4 VL with A94G
- Kd [2]: 1.3 nM
- koff [2]: 0.0023 s⁻¹
- kon [2]: 1.8e+06 M⁻¹ s⁻¹

B9: 147H-10 (antibody, V domains shown)
VH: B4 VH with I37V, K38R, I48M, K67R, A68V, K103G, H105Y
VL: B4 VL with A34G
notes: as for B5
- Kd [3]: 82.3 nM
- koff [3]: 0.00404 s⁻¹
- kon [3]: 49100 M⁻¹ s⁻¹

B10: 147H 3811 (antibody, V domains shown)
VH: B4 VH with T28L, N59V
VL: B4 VL with S61T, A94G, N96Y
- Kd [2]: 0.59 nM
- koff [2]: 0.0029 s⁻¹
- kon [2]: 4.9e+06 M⁻¹ s⁻¹

B11: 147H 3663 (antibody, V domains shown)
VH: B4 VH with T30E, N59V, K103G, H105Y
VL: B4 VL with S61R
- Kd [2]: 6.8 nM
- koff [2]: 0.0054 s⁻¹
- kon [2]: 790000 M⁻¹ s⁻¹

B12: 147H-9 (antibody, V domains shown)
VH: B4 VH with I37V, K38R, I48M, K67R, A68V, L70M, K103G, H105Y
VL: B4 VL with A34G
notes: as for B5
- Kd [3]: 66.4 nM
- koff [3]: 0.00448 s⁻¹
- kon [3]: 67400 M⁻¹ s⁻¹

B13: 147H 3549 (antibody, V domains shown)
VH: B4 VH
VL: B4 VL with N96Y, L99E
- Kd [2]: 0.92 nM
- koff [2]: 0.0068 s⁻¹
- kon [2]: 7.4e+06 M⁻¹ s⁻¹

B14: 147H 3669 (antibody, V domains shown)
VH: B4 VH with T28L, N59V, K103G, H105Y
VL: B4 VL
- Kd [2]: 8.8 nM
- koff [2]: 0.0063 s⁻¹
- kon [2]: 720000 M⁻¹ s⁻¹

B15: 147H 3790 (antibody, V domains shown)
VH: B4 VH
VL: B4 VL with S61T
- Kd [2]: 5.9 nM
- koff [2]: 0.0045 s⁻¹
- kon [2]: 770000 M⁻¹ s⁻¹

B16: 147H-2 (antibody, V domains shown)
VH: B4 VH with E1Q, I37V, K38R, I48M, K67R, A68V, L70M, K103G, H105Y
VL: B4 VL with A34G
notes: as for B5
- Kd [3]: 31.6 nM
- koff [3]: 0.00314 s⁻¹
- kon [3]: 99300 M⁻¹ s⁻¹

B17: 147H 3809 (antibody, V domains shown)
VH: B4 VH with T28L, N59V
VL: B4 VL with N96Y
- Kd [2]: 0.47 nM
- koff [2]: 0.002 s⁻¹
- kon [2]: 4.3e+06 M⁻¹ s⁻¹

B18: 147H 3792 (antibody, V domains shown)
VH: B4 VH with N59V, K103G, H105Y
VL: B4 VL with N96Y
- Kd [2]: 0.59 nM
- koff [2]: 0.0029 s⁻¹
- kon [2]: 4.9e+06 M⁻¹ s⁻¹

B19: 147H 3794 (antibody, V domains shown)
VH: B4 VH with T28L, N59V, K103G, H105Y
VL: B4 VL with N96Y
- Kd [2]: 0.72 nM
- koff [2]: 0.0027 s⁻¹
- kon [2]: 3.7e+06 M⁻¹ s⁻¹

B20: 147H 3808 (antibody, V domains shown)
VH: B4 VH with N59V
VL: B4 VL with A94G, N96Y
- Kd [2]: 0.75 nM
- koff [2]: 0.0032 s⁻¹
- kon [2]: 4.3e+06 M⁻¹ s⁻¹

B21: 147H 3550 (antibody, V domains shown)
VH: B4 VH
VL: B4 VL with N96Y
- Kd [2]: 0.98 nM
- koff [2]: 0.0085 s⁻¹
- kon [2]: 8.7e+06 M⁻¹ s⁻¹

B22: 147H-3 (antibody, V domains shown)
VH: B4 VH with E1Q, I37V, K38R, I48M, K67R, A68V, K103G, H105Y
VL: B4 VL with A34G
notes: as for B5
- Kd [3]: 36.5 nM
- koff [3]: 0.00338 s⁻¹
- kon [3]: 92500 M⁻¹ s⁻¹

B23: 147H 3791 (antibody, V domains shown)
VH: B4 VH with N59V, K103G, H105Y
VL: B4 VL with A94G
- Kd [2]: 1.2 nM
- koff [2]: 0.0025 s⁻¹
- kon [2]: 2.1e+06 M⁻¹ s⁻¹

B24: 147H-4 (antibody, V domains shown)
VH: B4 VH with E1Q, I37V, K38R, I48M, K103G, H105Y
VL: B4 VL with A34G
notes: as for B5
- Kd [3]: 39.8 nM
- koff [3]: 0.00343 s⁻¹
- kon [3]: 86200 M⁻¹ s⁻¹

B25: 147H-5 (antibody, V domains shown)
VH: B4 VH with E1Q, I37V, K38R, K103G, H105Y
VL: B4 VL with A34G
notes: as for B5
- Kd [3]: 31.3 nM
- koff [3]: 0.003 s⁻¹
- kon [3]: 95800 M⁻¹ s⁻¹

B26: 147H-12 (antibody, V domains shown)
VH: B4 VH with I37V, K38R, K103G, H105Y
VL: B4 VL with A34G
notes: as for B5
- Kd [3]: 55.2 nM
- koff [3]: 0.00344 s⁻¹
- kon [3]: 62300 M⁻¹ s⁻¹

B27: 147H-8 (antibody, V domains shown)
VH: B4 VH with I37V, K38R, I48M, K67R, A68V, L70M, A72R, K103G, H105Y
VL: B4 VL with A34G
notes: as for B5
- Kd [3]: 32.3 nM
- koff [3]: 0.00533 s⁻¹
- kon [3]: 165000 M⁻¹ s⁻¹

B28: NLAG3-HDB169-S128 (antibody, human IgG1, V domains shown)
VH: QVQLVQSGAEVKKPGSSVKVSCKASGGTFSSYAISWVRQAPGQGLEWMGGIIPIFGTANYAQKFQGRVTITADESTSTAYMELSSLRSEDTAVYYCARDAGPVGYYGMDVWGQGTMVTVSS
VL: AIQMTQSPSSLSASVGDRVTITCRASQGISSWLAWYQQKPGKAPKLLIYAASSLQSGVPSRFSGSGSGTDFTLTISRLQPEDFATYYCQQAKSFPLTFGGGTKVEIKR
notes: Short label tied by its unique suffix
- Kd [4]: 0.815 nM
- koff [4]: 0.000817 s⁻¹
- kon [4]: 1e+06 M⁻¹ s⁻¹

B29: NLAG3-HDB323-S20 (antibody, human IgG1, V domains shown)
VH: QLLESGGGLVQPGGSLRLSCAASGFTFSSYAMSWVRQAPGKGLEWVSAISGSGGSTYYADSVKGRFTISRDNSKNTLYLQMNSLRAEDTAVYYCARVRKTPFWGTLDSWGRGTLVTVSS
VL: VIWMTQSPSSLSASVGDRVTITCRASQGVSSYLAWYQQKPGKAPKLLIYAASSLQSGVPSRFSGSGSGTEFTLTISSLQPEDFATYYCQQTNWFPLTFGPGTRLEIKR
notes: Human IgG1 / kappa (pFUSEss-CHIg-hG1, pFUSE2ss-CLIg-hk); Short label tied by its unique suffix
- Kd [4]: 0.0443 nM
- koff [4]: 7.33e-06 s⁻¹
- kon [4]: 165000 M⁻¹ s⁻¹
